Test system: Oxidatively competent cells
Assay: Antimycin A-induced cell death in oxidatively competent cells, SYTOX assay after 4 hours
Format: cell-based, rat-human hybrid (GCL1)
Conditions: lactoferrin alone at 100 μg/ml
From the text: The GCL1 (WiF-B) liver cell line is a hybrid originating from the fusion of rat hepatoma cells (fao) and human fibroblasts (W138). Cassio et al. (1991) J. Cell Biol. 115:1397-1408; Shanks et al. (1994) J. Cell Science 107:813-825. […] Ihrke et al. 1993, J. Cell Biol. 123:1761-1775. At greater than 80% confluence, more than 80% of the cells participate in forming one or more phaselucent, spherical structures that are located between cells, termed bile canicular-like spaces. In contrast to the majority of cell lines maintained in culture which are fermentative, GCL1 cells, when at their maximal density and polarity, are highly oxidative (i.e., they can be readily killed by inhibitors of oxidative phosphorylation or electron transport uncouplers). […] These cells are amenable to use in high throughput screening (HTS) technology.
Energetically competent cells are seeded onto 96-well plates at 1×10^3/well or 2.5×10^3/well as passage 15. The cells are grown in DMEM with 10% FBS and 1.5 g/L sodium bicarbonate for 24 or 48 hours to reach 85% confluence. The cells are washed once with HBSS and then 100 μl of HBSS containing different concentration of AA (Sigma Chemical Co., Cat # A 8674) is added to the cells. AA is dissolved in DMSO to make a stock solution of 50 mM, then diluted with HBSS to 100, 50, 25, 12.5, 6.25, 3.125, and 1.56 μM for dose-response curves. […]

B1: lactoferrin: Bovine lactoferrin, iron-binding glycoprotein of milk (Sigma cat. # L9507 or DMV International Nutritionals) (protein, UniProt P24627 20-708, looked up)
Lactotransferrin: APRKNVRWCTISQPEWFKCRRWQWRMKKLGAPSITCVRRAFALECIRAIAEKKADAVTLDGGMVFEAGRDPYKLRPVAAEIYGTKESPQTHYYAVAVVKKGSNFQLDQLQGRKSCHTGLGRSAGWIIPMGILRPYLSWTESLEPLQGAVAKFFSASCVPCIDRQAYPNLCQLCKGEGENQCACSSREPYFGYSGAFKCLQDGAGDVAFVKETTVFENLPEKADRDQYELLCLNNSRAPVDAFKECHLAQVPSHAVVARSVDGKEDLIWKLLSKAQEKFGKNKSRSFQLFGSPPGQRDLLFKDSALGFLRIPSKVDSALYLGSRYLTTLKNLRETAEEVKARYTRVVWCAVGPEEQKKCQQWSQQSGQNVTCATASTTDDCIVLVLKGEADALNLDGGYIYTAGKCGLVPVLAENRKSSKHSSLDCVLRPTEGYLAVAVVKKANEGLTWNSLKDKKSCHTAVDRTAGWNIPMGLIVNQTGSCAFDEFFSQSCAPGADPKSRLCALCAGDDQGLDKCVPNSKEKYYGYTGAFRCLAEDVGDVAFVKNDTVWENTNGESTADWAKNLNREDFRLLCLDGTRKPVTEAQSCHLAVAPNHAVVSRSDRAAHVKQVLLHQQALFGKNGKNCPDKFCLFKSETKNLLFNDNTECLAKLGGRPTYEEYLGTEYVTAIANLKKCSTSPLLEACAFLTR
Work on B1 yielded a cell death (Example 8, experiment with (+/−)-alpha tocopherol) of 85.9% and a cell death (Example 8, experiment with alpha-tocopherol Type V) of 96%.

— patent US6426362B1, “Formulations of tocopherols and methods of making and using them” (Galileo Laboratories, Inc., priority 1999, dated 2002)
